Reference: patent publication US9540424B2, “Serum albumin binding molecules” (BRISTOL-MYERS SQUIBB COMPANY, priority 2010, dated 2017)

B1: His-tagged FGF21: non-fused His-tagged FGF21 (“FGFv1”; SEQ ID NO: 125) used as a comparator (protein)
chain: MHHHHHHPIPDSSPLLQFGGQVRQRYLYTDDAQQTEAHLEIREDGTVGGAADQSPESLLQLKALKPGVIQILGVKTSRFLCQRPDGALYGSLHFDPEACSFRELLLEDGYNVYQSEAHGLPLHLPGNKSPHRDPAPRGPARFLPLPGLPPALPEPPGILAPQPPDVGSSDPLSMVGPSQGRSPSYAS
modifications: His6 tag
B2: SABA1-FGF21v1: SABA1-FGF21 fusion, SEQ ID NO: 132; 293 aa; DNA SEQ ID NO: 184 (protein)
chain: MGVSDVPRDLEVVAATPTSLLISWHSYYEQNSYYRITYGETGGNSPVQEFTVPYSQTTATISGLKPGVDYTITVYAVYGSKYYYPISINYRTEIEKPSQGSGSGSGSGSGSGSPIPDSSPLLQFGGQVRQRYLYTDDAQQTEAHLEIREDGTVGGAADQSPESLLQLKALKPGVIQILGVKTSRFLCQRPDGALYGSLHFDPEACSFRELLLEDGYNVYQSEAHGLPLHLPGNKSPHRDPAPRGPARFLPLPGLPPALPEPPGILAPQPPDVGSSDPLSMVGPSQGRSPSYAS

Columns and labels:
[1] = Plasma exposure in the ob/ob mouse efficacy study; format: in vivo, ob/ob mice; conditions: His6-tagged FGF21 0.3 mg/kg, SABA1-FGF21v1 1 mg/kg, without HSA; for Plasma Concentration: 3 hours post dose; for Plasma Concentration (ng/ml): […] hours post dose
Procedure: (§1) Thus, monitoring plasma glucose levels in diabetic ob/ob mice represents one way that the functional activity of the FGF21-SABA fusion proteins can be assessed. Beginning at 8 weeks of age, diabetic ob/ob mice received daily subcutaneous doses for 7 days (n=8 per group). All protocols were approved by the BMS ACUC committee. Fed glucose levels were examined both 24 hr and 3 hr post-dose on day 7 beginning at 8:00 AM. His-tagged FGF21 and SABA1-FGF21v1 were formulated in PBS and dosed at 0.3 mg/kg, and 1.0 mg/kg. respectively.
(§2) To evaluate the efficacy of SABA1-FGF21v1 bound to human albumin, the fusion protein (1 mg/kg) was incubated with a molar excess of human serum albumin (6 mg/kg) and the mixture was injected in an additional group (q.d. s.c. for 7 days). Human serum albumin (6 mg/kg) was used as an additional control group.
The exposure of SABA1-FGF21v1 is greater in the presence of human serum albumin than in its absence.
(§3) Various in vivo studies were conducted in mice and monkeys to characterize the pharmacokinetics of His-tagged FGF21 and SABA1-FGF21v1. An ELISA-based ligand binding assay was used to measure the His-tagged FGF21 and SABA1-FGF21v1 in all mouse and monkey plasma samples.

[2] = test system: HEK cells stably expressing human β-klotho; assay: HEK β-Klotho pERK 1/2 assay; format: cell-based; conditions: for Efficacy (%): % of His6-tagged FGF21 maximal activity; for activity in HEK β-klotho stable cells (specificity experiment): same dilutions as in parental HEK cells
Procedure: FGF21 induces ERK phosphorylation in the presence of β-klotho. Accordingly, the present HEK-β-klotho assay system was constructed to examine the functional activity of the FGF21-SABA fusions in vitro. Specifically, in vitro activity, potency (EC50) and efficacy (as a percentage of maximal activity observed from an FGF21 molecule that is not fused to a SABA), were determined for the SABA1-FGF21v1 (SEQ ID NO: 132) fusion protein, as measured in the HEK β-Klotho expressing stable cell pERK 1/2 assay using the non-fused His-tagged FGF21 (“FGFv1”; SEQ ID NO: 125) as a comparator.
A HEK cell line stably expressing human β-klotho was constructed. The human β-klotho construct encoded the full length protein under the control of a CMV promoter with a C-terminal FLAG tag. HEK 293 cells were transfected with the linearized cDNA using Lipofectamine 2000 (Invitrogen catalog #11668027) following the manufactures protocol using standard techniques. Positive clones were isolated after 14 days of selection in 600 ug/ml (Invitrogen catalog #10131) of geneticin in Dulbecco's Modified Eagle Medium with high glucose containing L-Glutamine, Hepes (Invitrogen catalog #12430054) and 10% FBS (HyClone catalog # SH30071). Positive stable clones were further characterized by Western Blot analysis and p-ERK activation by AlphaScreen (Perkin Elmer catalog # TGRES50K) analysis.
HEK cells stably expressing human β-klotho were plated at 20,000 cells/well in 96 well tissue culture plates in DMEM high glucose media (Gibco) containing 10% (v/v) FBS (Hyclone) and 600 μg/ml G418 (Gibco). The following day, the media was removed and replaced with DMEM high glucose media without serum and the cells were incubated overnight. The morning of the third day the serum free media was removed and the cells were incubated for a total of seven minutes with dilutions of the proteins made in PBS containing 3% (w/v) fatty acid free human serum albumin. Dilutions were tested in triplicate, one well on each of three plates. At the end of the seven minute incubation, the protein dilutions were removed and 100 μl of 1x AlphaScreen lysis buffer (Perkin-Elmer) was added per well and allowed to incubate with shaking for approximately 10-15 minutes. The plates containing the cellular lysates were frozen at −80° C. for at least 30 minutes or until ready to assay. Four μl from each well of thawed cell lysate was analyzed for pERK 1/2 using the Surefire AlphaScreen pERK 1/2 kit (Perkin Elmer) using 384 well white Proxiplates (Perkin Elmer) following the manufacturer's directions. Plates were incubated at room temperature for two hours in the dark and then read on an Envision 2103 Multiplate reader (Perkin Elmer). Data were analyzed using Graph Pad Prism software using a non-linear regression analysis.

[3] = Pharmacokinetics of His-tagged FGF21 and SABA-FGF21 fusions in monkeys; format: in vivo, cynomolgus monkeys; conditions: for CL (total body plasma clearance, CLTp) / T½ (terminal half-life) / Vdss (steady-state volume of distribution, Vss) / absolute subcutaneous bioavailability / apparent subcutaneous terminal half-life (T1/2): monkeys; for CL (total body plasma clearance, CLTp) / T½ (terminal half-life) / Vdss (steady-state volume of distribution, Vss): intravenous, His-tagged FGF21 0.5 mg/kg, SABA1-FGF21v1 0.08 mg/kg
Procedure: as §3
(§4) Following subcutaneous administration, His-tagged FGF21 was well absorbed.
(§5) Following subcutaneous administration, SABA1-FGF21v1 was well absorbed.

[4] = Pharmacokinetics of His-tagged FGF21 and SABA1-FGF21v1 in mice; format: in vivo, CD-1 mice; ob/ob mice; conditions: for steady-state volume of distribution (Vss) / terminal half-life (T1/2) / total body plasma clearance (CLTp): CD-1 mice, intravenous, His-tagged FGF21 1 mg/kg, SABA1-FGF21v1 1.6 mg/kg
Procedure: as §3, §4, §5
SABA1-FGF21v1 was also administered to ob/ob mice at 1 mg/kg subcutaneously after pre-mix with human serum albumin (6 mg/kg).

[5] = test system: diabetic ob/ob mice; assay: Plasma glucose lowering in diabetic ob/ob mice, 7 days daily s.c.; format: in vivo, mouse; conditions: day 7; for lowering of plasma glucose compared to the PBS vehicle control: SABA1-FGF21v1 1.0 mg/kg, His-tagged FGF21 0.3 mg/kg s.c. daily; for magnitude of glucose lowering: […] hours post dose
Procedure: as §1, §2

[6] = test system: parental HEK cells, which do not express β-klotho; assay: pERK 1/2 specificity assay in parental HEK cells; format: cell-based, human
Source text: FGF1 was used as a positive control in those experiments.

[7] = target: HSA (Homo sapiens, UniProt P02768); assay: Isothermal Titration calorimetry of SABA1-FGF21 fusion with HSA; format: binding; conditions: 37° C., PBS buffer
Procedure: The binding competency and thermodynamic characterization of FGF21-SABA fusion variants to human serum albumin were performed using Isothermal Titration calorimetry on a Microcal VP-ITC instrument (Microcal Inc. Amherst Mass., USA). […] The detailed experimental conditions are described below.
For the calorimetry assay, the FGF21-SABA variant SABA1-FGF21v1 (SEQ ID NO: 132) was used. […] For the SPR studies, SABA1-FGF21v1 and SABA1-FGF21v3 (SEQ ID NO: 134) were examined.
SABA-FGF21 fusion protein plus buffer was placed in the instrument sample cell at a concentration range of 0.4 to 1.0 mg/mL protein. The matching buffer was placed in the reference cell. Concentrations were determined using extinction coefficients calculated from the protein sequences of the pure proteins. The instrument reaction cell was equilibrated at 37° C. […] Data sets obtained were baseline-subtracted and corrected for the heat of dilution of the HSA injected into the cell. The resultant thermogram data was fitted using Origin™ evaluation software package (Microcal Inc.) version 2.0.2 to estimate the stochiometry, enthalpy, and equilibrium disassociation constant (KD) of the protein-protein binding reaction.

[8] = cyno, SC, 0.08 mg/kg, N = 3, mean ± SD

| Molecule | Plasma Concentration [1] | Plasma Concentration (ng/ml) [1] | Efficacy (%) ([2]; mean ± std. dev., N ≧4) | activity in HEK β-klotho stable cells (specificity experiment) [2] | CL (total body plasma clearance, CLTp) [3] | T½ (terminal half-life) [3] | Vdss (steady-state volume of distribution, Vss) [3] | absolute subcutaneous bioavailability [3] | apparent subcutaneous terminal half-life (T1/2) [3] | steady-state volume of distribution (Vss) [4] | terminal half-life (T1/2) [4] | total body plasma clearance (CLTp) [4] | apparent subcutaneous terminal half-life (T1/2) ([4]; mice, subcutaneous) | lowering of plasma glucose compared to the PBS vehicle control ([5]; 3 hours post dose) | stimulation of pERK 1/2 levels in parental HEK cells [6] | other results |
| --- | --- | --- | --- | --- | --- | --- | --- | --- | --- | --- | --- | --- | --- | --- | --- | --- |
| B1 | 99 ng/mL | <LLOQ | 100% | showed activity | 6.4 mL/min/kg | 1.9 h | 1 L/kg | 65% | 4.3 h | 0.27 L/kg | 0.5 h | 12 mL/min/kg | 0.6 h | comparable | neither His-tagged FGF21 nor SABA1-FGF21v1 stimulated pERK 1/2 levels | EC50 ([2]; pERK 1/2, in PBS with 3% human serum albumin, mean ± std. dev., N ≧4): 7 ± 4 nM; absolute subcutaneous bioavailability ([4]; mice, subcutaneous): ~100% |
| B2 | 1370 ng/mL | <LLOQ | 62% | showed activity | 0.012 mL/min/kg | 97 h | 0.08 L/kg | 68% | 67 h | 0.12 L/kg | 1.9 h | 2.9 mL/min/kg | 1.9 h | 29% | neither His-tagged FGF21 nor SABA1-FGF21v1 stimulated pERK 1/2 levels | right shift of potency (EC50) relative to the His-tagged FGF21 [2]: approximately 15 fold; Efficacy (%) ([2]; mean ± std. dev., N ≧4, listed as SABAl-FGF21v1): 62 ± 9%; AUCtot ([3]; cyno, IV, 0.08 mg/kg, N = 2): 3.621 µM·h; CLTp ([3]; cyno, IV, 0.08 mg/kg, N = 2): 0.0118 mL/min/kg; T½ ([3]; cyno, IV, 0.08 mg/kg, N = 2): 97 h; Vss ([3]; cyno, IV, 0.08 mg/kg, N = 2): 0.076 L/kg; F (%) ([3]; cyno, SC, 0.08 mg/kg): 68%; AUCtot [3, 8]: 2.454 ± 0.779 µM·h; Cmax [3, 8]: 22.4 ± 10.8 nM; Tmax [3, 8]: 13 ± 9 h; apparent subcutaneous terminal half-life (T1/2) ([4]; ob/ob mice, 1 mg/kg subcutaneously after pre-mix with human serum albumin (6 mg/kg)): 9 h; lowering of plasma glucose compared to the HSA control ([5]; 3 hours post dose, 1 mg/kg with human serum albumin 6 mg/kg, q.d. s.c.): 46%; magnitude of glucose lowering ([5]; 1.0 mg/kg s.c. daily, without HSA): 7%; magnitude of glucose lowering ([5]; 1 mg/kg with HSA 6 mg/kg): 41%; N (stoichiometry) by isothermal titration calorimetry [7]: 0.87 |
